Source: patent US7659073

Row | Substance | cleavage of the pro leader by trypsin (N-terminal sequencing) ([-2]pPSA) | relative rate of pPSA activation by hK2 (HIC-HPLC) ([-2]pPSA) | relative rate of pPSA activation by hK2 (HIC-HPLC) ([-4]pPSA) | relative rate of pPSA activation by hK2 (HIC-HPLC) ([-5]pPSA) | relative rate of pPSA activation by hK2 (HIC-HPLC) ([-7]pPSA)
1 | trypsin | there was little or no cleavage to release the SR dipeptide of the [-2]pPSA (data not shown) |  |  |  | 
2 | human kallikrein 2 (hK2) |  | [-2]pPSA was not activated by hK2 | the [-4]pPSA was activated more slowly | The [5/-7]pPSA was activated most rapidly | The [5/-7]pPSA was activated most rapidly
